Experimental data reported in doi:10.1101/2023.02.01.526556.
Where no end group is shown, it is not given here.

Columns and labels:
[1] = target: AkFaNaC W167F (Aplysia kurodai)
[2] = target: AkFaNaC W167Y (Aplysia kurodai)

B1: FMRFamide (peptide)
peptide: FMRF-NH2
Which results are given for B1?
EC50 of the FMRFamide-gated Na+ current (COVC, Xenopus oocytes) [1]: > 100 µM; EC50 of the FMRFamide-gated Na+ current (COVC, Xenopus oocytes) [2]: > 100 µM
